T1: FcγRIIb extracellular domain with C-terminal His tag (human, UniProt P31994 43-217)
T1 construct: extracellular domain; Expressed in FreeStyle293 cells; used as analyte in Biacore; also called FcgRIIb; 2b; not shown: C-terminal His tag
T1 sequence (looked up): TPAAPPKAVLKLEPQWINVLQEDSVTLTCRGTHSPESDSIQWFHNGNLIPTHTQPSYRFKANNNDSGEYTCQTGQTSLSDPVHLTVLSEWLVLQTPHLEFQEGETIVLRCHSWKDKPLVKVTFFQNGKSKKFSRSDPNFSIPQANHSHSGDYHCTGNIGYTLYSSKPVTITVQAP

B1: GpH7-B3 variant S267_03V/GpL16-k0 (Ho Ab) (antibody, human IgG1, kappa)
heavy: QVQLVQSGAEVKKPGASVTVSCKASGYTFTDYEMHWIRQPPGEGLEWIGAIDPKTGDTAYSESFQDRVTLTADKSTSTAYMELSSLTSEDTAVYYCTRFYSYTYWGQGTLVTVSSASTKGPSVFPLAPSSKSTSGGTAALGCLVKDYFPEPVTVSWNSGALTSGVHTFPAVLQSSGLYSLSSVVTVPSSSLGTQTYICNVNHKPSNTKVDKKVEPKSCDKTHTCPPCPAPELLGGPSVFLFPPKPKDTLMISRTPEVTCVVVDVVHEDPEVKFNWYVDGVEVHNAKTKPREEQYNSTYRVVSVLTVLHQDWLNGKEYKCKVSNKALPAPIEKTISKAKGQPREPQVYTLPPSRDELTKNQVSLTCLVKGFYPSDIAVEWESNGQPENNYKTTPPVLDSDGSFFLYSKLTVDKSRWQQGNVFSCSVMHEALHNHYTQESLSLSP
light: DIVMTQSPLSLPVTPGEPASISCQASESLVHSNRNTYLHWYLQKPGQSPQLLIYKVSNRFSGVPDRFSGSGSGTDFTLKISRVEAEDVGVYYCSQNTHVPPTFGQGTKVEIERTVAAPSVFIFPPSDEQLKSGTASVVCLLNNFYPREAKVQWKVDNALQSGNSQESVTEQDSKDSTYSLSSTLTLSKADYEKHKVYACEVTHQGLSSPVTKSFNRGEC
notes: Substitution in both H chains; position in EU numbering; also called S267V homodimerized antibody
B2: GpH7-B3 variant S267_07I/GpL16-k0 (Ho Ab) (antibody, human IgG1, kappa)
heavy: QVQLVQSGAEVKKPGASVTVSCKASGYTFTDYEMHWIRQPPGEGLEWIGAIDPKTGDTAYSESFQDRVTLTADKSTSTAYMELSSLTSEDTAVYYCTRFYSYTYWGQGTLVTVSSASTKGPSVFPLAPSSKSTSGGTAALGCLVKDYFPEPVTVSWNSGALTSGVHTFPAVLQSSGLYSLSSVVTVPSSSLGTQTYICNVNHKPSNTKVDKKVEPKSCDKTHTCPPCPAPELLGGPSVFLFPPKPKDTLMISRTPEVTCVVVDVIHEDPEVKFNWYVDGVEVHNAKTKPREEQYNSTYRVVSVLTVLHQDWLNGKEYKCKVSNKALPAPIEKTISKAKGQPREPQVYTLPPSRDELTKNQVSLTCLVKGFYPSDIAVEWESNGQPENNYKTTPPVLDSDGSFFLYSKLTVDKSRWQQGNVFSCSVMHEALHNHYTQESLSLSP
light: DIVMTQSPLSLPVTPGEPASISCQASESLVHSNRNTYLHWYLQKPGQSPQLLIYKVSNRFSGVPDRFSGSGSGTDFTLKISRVEAEDVGVYYCSQNTHVPPTFGQGTKVEIERTVAAPSVFIFPPSDEQLKSGTASVVCLLNNFYPREAKVQWKVDNALQSGNSQESVTEQDSKDSTYSLSSTLTLSKADYEKHKVYACEVTHQGLSSPVTKSFNRGEC
notes: Substitution in both H chains; position in EU numbering; also called S267I homodimerized antibody
B3: GpH7-B3 variant S267_08L/GpL16-k0 (Ho Ab) (antibody, human IgG1, kappa)
heavy: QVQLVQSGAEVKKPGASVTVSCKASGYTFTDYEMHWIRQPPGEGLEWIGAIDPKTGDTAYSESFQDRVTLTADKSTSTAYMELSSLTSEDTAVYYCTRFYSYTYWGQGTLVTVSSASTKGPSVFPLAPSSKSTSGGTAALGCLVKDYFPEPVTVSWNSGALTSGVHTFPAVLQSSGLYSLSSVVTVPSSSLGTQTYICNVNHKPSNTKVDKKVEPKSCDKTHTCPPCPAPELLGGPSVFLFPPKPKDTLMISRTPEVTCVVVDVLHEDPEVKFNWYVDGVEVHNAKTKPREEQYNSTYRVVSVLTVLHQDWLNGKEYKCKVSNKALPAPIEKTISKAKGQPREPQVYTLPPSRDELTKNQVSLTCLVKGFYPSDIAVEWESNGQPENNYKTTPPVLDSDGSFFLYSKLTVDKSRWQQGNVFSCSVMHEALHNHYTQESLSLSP
light: DIVMTQSPLSLPVTPGEPASISCQASESLVHSNRNTYLHWYLQKPGQSPQLLIYKVSNRFSGVPDRFSGSGSGTDFTLKISRVEAEDVGVYYCSQNTHVPPTFGQGTKVEIERTVAAPSVFIFPPSDEQLKSGTASVVCLLNNFYPREAKVQWKVDNALQSGNSQESVTEQDSKDSTYSLSSTLTLSKADYEKHKVYACEVTHQGLSSPVTKSFNRGEC
notes: Substitution in both H chains; position in EU numbering; also called S267L homodimerized antibody
B4: GpH7-B3 variant S267_09D/GpL16-k0 (Ho Ab) (antibody, human IgG1, kappa)
heavy: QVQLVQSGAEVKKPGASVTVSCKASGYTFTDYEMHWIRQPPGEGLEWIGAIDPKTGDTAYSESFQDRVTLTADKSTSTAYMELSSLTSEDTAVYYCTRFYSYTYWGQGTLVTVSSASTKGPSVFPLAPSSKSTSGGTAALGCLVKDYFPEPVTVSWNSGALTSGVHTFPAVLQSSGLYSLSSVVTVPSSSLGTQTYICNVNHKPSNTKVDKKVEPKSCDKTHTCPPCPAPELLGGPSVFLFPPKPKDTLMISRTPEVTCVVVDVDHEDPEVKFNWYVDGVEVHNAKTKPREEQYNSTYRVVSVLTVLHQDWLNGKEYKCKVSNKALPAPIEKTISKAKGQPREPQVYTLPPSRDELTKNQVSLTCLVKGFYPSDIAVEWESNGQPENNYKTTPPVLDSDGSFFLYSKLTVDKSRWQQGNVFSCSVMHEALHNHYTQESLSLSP
light: DIVMTQSPLSLPVTPGEPASISCQASESLVHSNRNTYLHWYLQKPGQSPQLLIYKVSNRFSGVPDRFSGSGSGTDFTLKISRVEAEDVGVYYCSQNTHVPPTFGQGTKVEIERTVAAPSVFIFPPSDEQLKSGTASVVCLLNNFYPREAKVQWKVDNALQSGNSQESVTEQDSKDSTYSLSSTLTLSKADYEKHKVYACEVTHQGLSSPVTKSFNRGEC
notes: Substitution in both H chains; position in EU numbering; also called S267D homodimerized antibody
B5: GpH7-B3 variant S267_10E/GpL16-k0 (Ho Ab) (antibody, human IgG1, kappa)
heavy: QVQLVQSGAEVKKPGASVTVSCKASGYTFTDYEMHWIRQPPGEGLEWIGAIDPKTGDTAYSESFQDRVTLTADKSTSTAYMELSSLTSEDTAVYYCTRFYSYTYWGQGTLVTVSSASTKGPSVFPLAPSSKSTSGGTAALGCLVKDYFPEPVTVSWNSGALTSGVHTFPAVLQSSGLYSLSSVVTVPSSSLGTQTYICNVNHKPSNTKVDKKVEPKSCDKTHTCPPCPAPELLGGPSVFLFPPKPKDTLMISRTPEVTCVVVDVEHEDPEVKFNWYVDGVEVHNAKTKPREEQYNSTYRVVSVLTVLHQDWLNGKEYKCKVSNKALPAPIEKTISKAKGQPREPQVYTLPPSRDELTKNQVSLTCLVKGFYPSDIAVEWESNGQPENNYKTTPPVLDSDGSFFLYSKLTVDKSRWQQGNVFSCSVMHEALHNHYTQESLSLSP
light: DIVMTQSPLSLPVTPGEPASISCQASESLVHSNRNTYLHWYLQKPGQSPQLLIYKVSNRFSGVPDRFSGSGSGTDFTLKISRVEAEDVGVYYCSQNTHVPPTFGQGTKVEIERTVAAPSVFIFPPSDEQLKSGTASVVCLLNNFYPREAKVQWKVDNALQSGNSQESVTEQDSKDSTYSLSSTLTLSKADYEKHKVYACEVTHQGLSSPVTKSFNRGEC
notes: Substitution in both H chains; position in EU numbering; also called S267E homodimerized antibody
B6: GpH7-B3 variant S267_14T/GpL16-k0 (Ho Ab) (antibody, human IgG1, kappa)
heavy: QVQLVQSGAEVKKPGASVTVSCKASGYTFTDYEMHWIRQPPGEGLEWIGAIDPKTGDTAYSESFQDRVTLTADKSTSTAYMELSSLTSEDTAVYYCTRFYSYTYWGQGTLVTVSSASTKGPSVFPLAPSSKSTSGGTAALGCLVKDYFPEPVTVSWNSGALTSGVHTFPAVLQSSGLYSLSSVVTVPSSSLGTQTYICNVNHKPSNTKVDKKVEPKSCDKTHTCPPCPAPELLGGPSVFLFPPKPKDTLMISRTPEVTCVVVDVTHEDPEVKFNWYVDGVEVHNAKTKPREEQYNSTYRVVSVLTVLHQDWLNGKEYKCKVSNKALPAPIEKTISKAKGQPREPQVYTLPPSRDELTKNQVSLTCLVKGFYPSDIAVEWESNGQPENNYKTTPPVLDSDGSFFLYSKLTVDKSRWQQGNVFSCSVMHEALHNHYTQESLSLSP
light: DIVMTQSPLSLPVTPGEPASISCQASESLVHSNRNTYLHWYLQKPGQSPQLLIYKVSNRFSGVPDRFSGSGSGTDFTLKISRVEAEDVGVYYCSQNTHVPPTFGQGTKVEIERTVAAPSVFIFPPSDEQLKSGTASVVCLLNNFYPREAKVQWKVDNALQSGNSQESVTEQDSKDSTYSLSSTLTLSKADYEKHKVYACEVTHQGLSSPVTKSFNRGEC
notes: Substitution in both H chains; position in EU numbering; also called S267T homodimerized antibody
B7: GpH7-B3 variant S298_08L/GpL16-k0 (Ho Ab) (antibody, human IgG1, kappa)
heavy: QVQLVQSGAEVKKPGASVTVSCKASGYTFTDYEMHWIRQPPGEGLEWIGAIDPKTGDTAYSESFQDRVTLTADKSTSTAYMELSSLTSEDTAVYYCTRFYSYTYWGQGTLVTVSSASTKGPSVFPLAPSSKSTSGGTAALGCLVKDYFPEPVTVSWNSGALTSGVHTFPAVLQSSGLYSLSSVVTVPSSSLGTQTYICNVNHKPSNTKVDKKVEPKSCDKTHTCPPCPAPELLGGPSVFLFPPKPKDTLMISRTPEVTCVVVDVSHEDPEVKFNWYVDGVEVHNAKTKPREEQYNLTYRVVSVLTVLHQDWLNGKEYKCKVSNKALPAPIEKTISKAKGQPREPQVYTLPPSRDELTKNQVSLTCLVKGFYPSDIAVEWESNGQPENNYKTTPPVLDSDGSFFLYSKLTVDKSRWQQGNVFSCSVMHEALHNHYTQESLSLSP
light: DIVMTQSPLSLPVTPGEPASISCQASESLVHSNRNTYLHWYLQKPGQSPQLLIYKVSNRFSGVPDRFSGSGSGTDFTLKISRVEAEDVGVYYCSQNTHVPPTFGQGTKVEIERTVAAPSVFIFPPSDEQLKSGTASVVCLLNNFYPREAKVQWKVDNALQSGNSQESVTEQDSKDSTYSLSSTLTLSKADYEKHKVYACEVTHQGLSSPVTKSFNRGEC
notes: Substitution in both H chains; position in EU numbering; also called S298L homodimerized antibody
B8: GpH7-B3 variant S337_09D/GpL16-k0 (Ho Ab) (antibody, human IgG1, kappa)
heavy: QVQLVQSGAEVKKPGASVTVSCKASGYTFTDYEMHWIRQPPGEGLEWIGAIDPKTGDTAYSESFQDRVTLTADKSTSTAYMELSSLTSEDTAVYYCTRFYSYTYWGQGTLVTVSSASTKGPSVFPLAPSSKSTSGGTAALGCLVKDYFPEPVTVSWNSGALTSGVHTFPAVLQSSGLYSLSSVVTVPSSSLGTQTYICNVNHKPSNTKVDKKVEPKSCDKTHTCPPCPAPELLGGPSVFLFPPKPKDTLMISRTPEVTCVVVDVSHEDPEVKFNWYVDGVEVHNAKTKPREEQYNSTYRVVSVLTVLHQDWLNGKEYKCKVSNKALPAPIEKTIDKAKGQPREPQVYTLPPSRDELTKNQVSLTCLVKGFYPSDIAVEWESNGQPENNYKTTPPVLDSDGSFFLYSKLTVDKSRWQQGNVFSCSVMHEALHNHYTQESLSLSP
light: DIVMTQSPLSLPVTPGEPASISCQASESLVHSNRNTYLHWYLQKPGQSPQLLIYKVSNRFSGVPDRFSGSGSGTDFTLKISRVEAEDVGVYYCSQNTHVPPTFGQGTKVEIERTVAAPSVFIFPPSDEQLKSGTASVVCLLNNFYPREAKVQWKVDNALQSGNSQESVTEQDSKDSTYSLSSTLTLSKADYEKHKVYACEVTHQGLSSPVTKSFNRGEC
notes: Substitution in both H chains; position in EU numbering; also called S337D homodimerized antibody
B9: GpH7-B3 variant S337_10E/GpL16-k0 (Ho Ab) (antibody, human IgG1, kappa)
heavy: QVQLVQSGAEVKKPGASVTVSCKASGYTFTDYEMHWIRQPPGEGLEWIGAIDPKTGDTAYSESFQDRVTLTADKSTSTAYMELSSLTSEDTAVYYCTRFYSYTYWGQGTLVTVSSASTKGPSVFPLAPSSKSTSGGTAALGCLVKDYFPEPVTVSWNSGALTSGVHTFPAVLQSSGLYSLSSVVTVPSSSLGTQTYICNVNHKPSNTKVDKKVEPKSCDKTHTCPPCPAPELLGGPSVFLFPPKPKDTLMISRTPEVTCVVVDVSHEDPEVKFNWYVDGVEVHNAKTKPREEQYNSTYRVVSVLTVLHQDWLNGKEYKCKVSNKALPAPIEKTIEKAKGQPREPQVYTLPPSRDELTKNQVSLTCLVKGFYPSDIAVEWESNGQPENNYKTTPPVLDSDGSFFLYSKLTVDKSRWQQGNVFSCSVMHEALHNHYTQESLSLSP
light: DIVMTQSPLSLPVTPGEPASISCQASESLVHSNRNTYLHWYLQKPGQSPQLLIYKVSNRFSGVPDRFSGSGSGTDFTLKISRVEAEDVGVYYCSQNTHVPPTFGQGTKVEIERTVAAPSVFIFPPSDEQLKSGTASVVCLLNNFYPREAKVQWKVDNALQSGNSQESVTEQDSKDSTYSLSSTLTLSKADYEKHKVYACEVTHQGLSSPVTKSFNRGEC
notes: Substitution in both H chains; position in EU numbering; also called S337E homodimerized antibody
B10: GpH7-B3 variant S337_14T/GpL16-k0 (Ho Ab) (antibody, human IgG1, kappa)
heavy: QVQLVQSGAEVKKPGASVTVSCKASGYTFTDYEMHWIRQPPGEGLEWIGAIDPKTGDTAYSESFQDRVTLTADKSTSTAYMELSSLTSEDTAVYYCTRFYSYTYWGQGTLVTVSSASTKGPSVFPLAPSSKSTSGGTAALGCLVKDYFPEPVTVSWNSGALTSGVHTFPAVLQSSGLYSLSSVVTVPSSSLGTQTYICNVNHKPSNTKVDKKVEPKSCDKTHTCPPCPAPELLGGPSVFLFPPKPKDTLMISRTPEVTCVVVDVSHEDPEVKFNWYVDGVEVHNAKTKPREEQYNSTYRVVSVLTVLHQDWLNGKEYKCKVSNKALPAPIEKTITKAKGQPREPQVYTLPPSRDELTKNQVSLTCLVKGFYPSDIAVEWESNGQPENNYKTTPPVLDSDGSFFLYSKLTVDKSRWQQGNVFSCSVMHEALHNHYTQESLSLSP
light: DIVMTQSPLSLPVTPGEPASISCQASESLVHSNRNTYLHWYLQKPGQSPQLLIYKVSNRFSGVPDRFSGSGSGTDFTLKISRVEAEDVGVYYCSQNTHVPPTFGQGTKVEIERTVAAPSVFIFPPSDEQLKSGTASVVCLLNNFYPREAKVQWKVDNALQSGNSQESVTEQDSKDSTYSLSSTLTLSKADYEKHKVYACEVTHQGLSSPVTKSFNRGEC
notes: Substitution in both H chains; position in EU numbering; also called S337T homodimerized antibody
B11: GpH7-B3 variant T335_04F/GpL16-k0 (Ho Ab) (antibody, human IgG1, kappa)
heavy: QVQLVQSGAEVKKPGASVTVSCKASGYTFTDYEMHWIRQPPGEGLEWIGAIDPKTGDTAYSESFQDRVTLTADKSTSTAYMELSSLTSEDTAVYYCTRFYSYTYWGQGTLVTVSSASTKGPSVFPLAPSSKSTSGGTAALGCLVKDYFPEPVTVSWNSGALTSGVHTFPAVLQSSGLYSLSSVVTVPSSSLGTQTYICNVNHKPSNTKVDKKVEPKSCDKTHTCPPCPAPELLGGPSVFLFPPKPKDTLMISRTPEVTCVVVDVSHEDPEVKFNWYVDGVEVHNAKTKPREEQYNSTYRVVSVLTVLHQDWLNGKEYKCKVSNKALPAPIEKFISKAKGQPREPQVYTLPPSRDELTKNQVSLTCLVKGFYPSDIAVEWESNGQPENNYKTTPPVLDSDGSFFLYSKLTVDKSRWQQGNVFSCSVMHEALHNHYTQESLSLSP
light: DIVMTQSPLSLPVTPGEPASISCQASESLVHSNRNTYLHWYLQKPGQSPQLLIYKVSNRFSGVPDRFSGSGSGTDFTLKISRVEAEDVGVYYCSQNTHVPPTFGQGTKVEIERTVAAPSVFIFPPSDEQLKSGTASVVCLLNNFYPREAKVQWKVDNALQSGNSQESVTEQDSKDSTYSLSSTLTLSKADYEKHKVYACEVTHQGLSSPVTKSFNRGEC
notes: Substitution in both H chains; position in EU numbering; also called T335F homodimerized antibody

Biological target: T1, FcγRIIb extracellular domain with …
Test: SPR (Biacore), antibody captured on antigen-peptide chip, FcgRIIb as analyte; binding relative to GpH7-B3/GpL16-k0 (HoCon Ab) = 100

Q: How did the Ho/Con_2b turn out when B1 was run?
A: Its Ho/Con_2b is 206 % of control.

Q: With B2 as the binder, how does the Ho/Con_2b read?
A: Its Ho/Con_2b is 213 % of control.

Q: Which Ho/Con_2b does the source give for B3 here?
A: Its Ho/Con_2b is 109 % of control.

Q: How did the Ho/Con_2b turn out when B4 was run?
A: The Ho/Con_2b was 327 % of control.

Q: How did the Ho/Con_2b turn out when B5 was run?
A: Its Ho/Con_2b is 396 % of control.

Q: How did the Ho/Con_2b turn out when B6 was run?
A: Its Ho/Con_2b is 106 % of control.

Q: For B7, which Ho/Con_2b is on record?
A: Its Ho/Con_2b is 115 % of control.

Q: How did the Ho/Con_2b turn out when B8 was run?
A: Its Ho/Con_2b is 116 % of control.

Q: With B9 as the binder, how does the Ho/Con_2b read?
A: Its Ho/Con_2b is 109 % of control.

Q: For B10, which Ho/Con_2b is on record?
A: Its Ho/Con_2b is 110 % of control.

Q: B11 was tested. Which Ho/Con_2b did it give?
A: Its Ho/Con_2b is 107 % of control.
